Assay results: patent US5885821

Key:
[1] = molecular target: chimeric protein βGal-117S4HPPH34 (E. coli; human)
[2] = molecular target: chimeric protein βGal-139S(FM)PPH84 (E. coli; human)

- excision efficiency of hPTH(1-34) from the chimeric protein [1]: > 90%
- recovery rate of hPTH(1-84) excised from the chimeric protein (HPLC) [2]: 75%
Substance: Kex2-660 (enzyme)
